# Source: paper PMC3345047 (Molecular Microbiology, 2012)
# B1: pro-PanD (uncleaved L-aspartate-alpha-decarboxylase) of Salmonella enterica (enzyme, S. enterica serovar Typhimurium LT2, UniProt P65662 1-126, looked up)
# chain: MIRTMLQGKLHRVKVTQADLHYEGSCAIDQDFLDASGILENEAIDIWNVTNGKRFSTYAIAAERGSRIISVNGAAAHCAEVGDIVIIASFVTMSDEEARTWRPKVAYFEGDNEMKRTAKAIPVQVA
# Molecular target: the molecule itself
# Assay: SEC
protein,measurement,value
B1,stoichiometry N,4
